Experimental data published in US20160252527A1 (Takeda / Millennium, published 2016).

B1: alpha 2 macroglobulin (α2M) (other, UniProt P01023 24-1474, looked up)
chain: SVSGKPQYMVLVPSLLHTETTEKGCVLLSYLNETVTVSASLESVRGNRSLFTDLEAENDVLHCVAFAVPKSSSNEEVMFLTVQVKGPTQEFKKRTTVMVKNEDSLVFVQTDKSIYKPGQTVKFRVVSMDENFHPLNELIPLVYIQDPKGNRIAQWQSFQLEGGLKQFSFPLSSEPFQGSYKVVVQKKSGGRTEHPFTVEEFVLPKFEVQVTVPKIITILEEEMNVSVCGLYTYGKPVPGHVTVSICRKYSDASDCHGEDSQAFCEKFSGQLNSHGCFYQQVKTKVFQLKRKEYEMKLHTEAQIQEEGTVVELTGRQSSEITRTITKLSFVKVDSHFRQGIPFFGQVRLVDGKGVPIPNKVIFIRGNEANYYSNATTDEHGLVQFSINTTNVMGTSLTVRVNYKDRSPCYGYQWVSEEHEEAHHTAYLVFSPSKSFVHLEPMSHELPCGHTQTVQAHYILNGGTLLGLKKLSFYYLIMAKGGIVRTGTHGLLVKQEDMKGHFSISIPVKSDIAPVARLLIYAVLPTGDVIGDSAKYDVENCLANKVDLSFSPSQSLPASHAHLRVTAAPQSVCALRAVDQSVLLMKPDAELSASSVYNLLPEKDLTGFPGPLNDQDNEDCINRHNVYINGITYTPVSSTNEKDMYSFLEDMGLKAFTNSKIRKPKMCPQLQQYEMHGPEGLRVGFYESDVMGRGHARLVHVEEPHTETVRKYFPETWIWDLVVVNSAGVAEVGVTVPDTITEWKAGAFCLSEDAGLGISSTASLRAFQPFFVELTMPYSVIRGEAFTLKATVLNYLPKCIRVSVQLEASPAFLAVPVEKEQAPHCICANGRQTVSWAVTPKSLGNVNFTVSAEALESQELCGTEVPSVPEHGRKDTVIKPLLVEPEGLEKETTFNSLLCPSGGEVSEELSLKLPPNVVEESARASVSVLGDILGSAMQNTQNLLQMPYGCGEQNMVLFAPNIYVLDYLNETQQLTPEIKSKAIGYLNTGYQRQLNYKHYDGSYSTFGERYGRNQGNTWLTAFVLKTFAQARAYIFIDEAHITQALIWLSQRQKDNGCFRSSGSLLNNAIKGGVEDEVTLSAYITIALLEIPLTVTHPVVRNALFCLESAWKTAQEGDHGSHVYTKALLAYAFALAGNQDKRKEVLKSLNEEAVKKDNSVHWERPQKPKAPVGHFYEPQAPSAEVEMTSYVLLAYLTAQPAPTSEDLTSATNIVKWITKQQNAQGGFSSTQDTVVALHALSKYGAATFTRTGKAAQVTIQSSGTFSSKFQVDNNNRLLLQQVSLPELPGEYSMKVTGEGCVYLQTSLKYNILPEKEEFPFALGVQTLPQTCDEPKAHTSFQISLSVSYTGSRSASNMAIVDVKMVSGFIPLKPTVKMLERSNHVSRTEVSSNHVLIYLDKVSNQTLSLFFTVLQDVPVRDLKPAIVKVYDYYETDEFAIAEYNAPCSKDLGNA
B2: DX-2930 (antibody, INN chains, looked up, V domains shown)
VH: EVQLLESGGGLVQPGGSLRLSCAASGFTFSHYIMMWVRQAPGKGLEWVSGIYSSGGITVYADSVKGRFTISRDNSKNTLYLQMNSLRAEDTAVYYCAYRRIGVPRRDEFDIWGQGTMVTVSS
VL: DIQMTQSPSTLSASVGDRVTITCRASQSISSWLAWYQQKPGKAPKLLIYKASTLESGVPSRFSGSGSGTEFTLTISSLQPDDFATYYCQQYNTYWTFGQGTKVEIK

Columns and labels:
[1] = molecular target: human plasma kallikrein (pKal) (human, UniProt P03952 20-638); test: cell-based or functional assay
[2] = molecular target: cynomolgus monkey plasma kallikrein (pKal) (cynomolgus monkey); test: cell-based or functional assay
Chain of cynomolgus monkey plasma kallikrein (pKal) (cynomolgus monkey) (chain, as listed by the source): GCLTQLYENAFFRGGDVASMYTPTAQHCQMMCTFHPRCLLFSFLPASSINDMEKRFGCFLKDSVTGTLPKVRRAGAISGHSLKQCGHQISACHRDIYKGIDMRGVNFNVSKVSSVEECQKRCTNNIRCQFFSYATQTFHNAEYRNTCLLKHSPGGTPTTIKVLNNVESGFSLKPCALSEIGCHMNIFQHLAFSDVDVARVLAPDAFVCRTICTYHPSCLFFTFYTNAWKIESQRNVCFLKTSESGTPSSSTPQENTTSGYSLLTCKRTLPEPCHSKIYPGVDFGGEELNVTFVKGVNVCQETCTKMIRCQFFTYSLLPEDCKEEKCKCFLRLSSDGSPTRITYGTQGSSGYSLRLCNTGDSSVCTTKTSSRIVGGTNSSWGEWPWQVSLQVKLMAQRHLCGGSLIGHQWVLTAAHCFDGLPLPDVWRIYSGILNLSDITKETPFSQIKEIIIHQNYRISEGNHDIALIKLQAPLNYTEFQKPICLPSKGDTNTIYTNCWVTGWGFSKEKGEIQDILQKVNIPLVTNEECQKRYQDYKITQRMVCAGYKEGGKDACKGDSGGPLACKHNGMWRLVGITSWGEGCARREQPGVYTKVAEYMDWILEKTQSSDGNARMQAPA

Chain of human plasma kallikrein (pKal) (P03952 20-638 limits assumed): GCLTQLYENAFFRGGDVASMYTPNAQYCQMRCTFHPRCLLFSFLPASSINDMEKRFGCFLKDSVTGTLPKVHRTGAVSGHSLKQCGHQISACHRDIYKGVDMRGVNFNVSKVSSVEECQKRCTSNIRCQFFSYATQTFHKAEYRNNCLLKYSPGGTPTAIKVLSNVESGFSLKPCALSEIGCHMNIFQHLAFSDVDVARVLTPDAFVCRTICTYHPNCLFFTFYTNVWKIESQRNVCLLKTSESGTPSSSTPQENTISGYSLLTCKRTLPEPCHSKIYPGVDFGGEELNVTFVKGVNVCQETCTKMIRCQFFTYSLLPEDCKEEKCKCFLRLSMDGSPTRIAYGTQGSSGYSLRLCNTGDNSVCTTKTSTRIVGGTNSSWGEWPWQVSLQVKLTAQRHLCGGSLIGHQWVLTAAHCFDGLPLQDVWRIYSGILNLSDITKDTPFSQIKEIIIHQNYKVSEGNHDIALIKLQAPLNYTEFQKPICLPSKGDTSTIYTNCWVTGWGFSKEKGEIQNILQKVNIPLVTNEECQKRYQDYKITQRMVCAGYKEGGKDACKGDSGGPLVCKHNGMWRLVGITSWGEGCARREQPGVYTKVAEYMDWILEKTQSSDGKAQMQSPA

Binder	IC50 (read off the curve) [1] [nM]	% Reduction of one-chain HMWK (XIIa activated plasma, 9 nM DX2930; Protein Simple Western) [1] [%]	% Reduction of one-chain HMWK (XIIa activated plasma, 27 nM DX2930; Protein Simple Western) [1] [%]	% Reduction of one-chain HMWK (XIIa activated plasma, 80 nM DX2930; Protein Simple Western) [1] [%]	% Reduction of one-chain HMWK (XIIa activated plasma, 240 nM DX2930; Protein Simple Western) [1] [%]	% Reduction of one-chain HMWK (XIIa activated plasma, 480 nM DX2930; Protein Simple Western) [1] [%]	Area of the one-chain HMWK peak (XIIa activated plasma, 9 nM DX2930; Protein Simple Western) [1]	Area of the one-chain HMWK peak (XIIa activated plasma, 27 nM DX2930; Protein Simple Western) [1]	Area of the one-chain HMWK peak (XIIa activated plasma, 80 nM DX2930; Protein Simple Western) [1]	Area of the one-chain HMWK peak (XIIa activated plasma, 240 nM DX2930; Protein Simple Western) [1]	Area of the one-chain HMWK peak (XIIa activated plasma, 480 nM DX2930; Protein Simple Western) [1]	maximal inhibition of pKal activity (PFR-AMC substrate), plasma of dose group 3 (1.0 mg/kg DX-2930) [1] [%]	maximal inhibition of pKal activity (PFR-AMC substrate), plasma of dose group 4 (3.0 mg/kg DX-2930) [1] [%]	percent inhibition of pKal activity (Pro-Phe-Arg-AMC substrate) after ex vivo FXIIa activation of plasma of a dosed monkey, drug level ~265 nM [2] [%]
B1	~400													
B2		92.1	90.4	79	63.9	54.9	842	1030	2230	3840	4800	19	36	80
